Reference: patent US20230406884A1 (ZEALAND PHARMA A S, published 2023)
*1 amine or outer side, *2 acyl side, *3 side chain or, on linkers, in order; H or OH if unused. Bridges are numbered along the chain shown (N, C = ends). Where no end group is shown, it is not given here. [ ]: non-standard residue; d: D form. formula (I) linker = non-peptide linker -N(R1)-C(R2)(R3)-C(R4)(R5)- (R1 H, R2 H, R3 CH3, R4 H, R5 C(O)NH-tBu), its N is acylated by the C-terminal carbonyl and its C(R4)(R5) carbon is bonded to the N-terminal N; X3 = 3‑aminomethyl‑4‑(4-(1-piperazinyl)phenyl)benzoic acid, O=C(c1ccc(-c2ccc(N3CCN([*:3])CC3)cc2)c(CN[*:1])c1)[*:2]; Thr(OMe) = O-methyl-threonine, CO[C@H](C)[C@H](N[*:1])C(=O)[*:2]; dPhe(4-CH2NH2) = NCc1ccc(C[C@@H](N)C(=O)O)cc1; Phe(4-CH2NH2) = NCc1ccc(C[C@H](N)C(=O)O)cc1; Hyp = O=C(O)[C@@H]1C[C@@H](O)CN1; d(β3hK) = NCCCC[C@@H](N)CC(=O)O; β3hK = NCCCC[C@H](N)CC(=O)O; dNle = CCCC[C@@H](N)C(=O)O

B1: Compound No. 150 (peptide)
peptide: PYXXDT
modifications: X^z dPip; X^1 tertbutylAla
notes: macrocycle of formula (I)
B2: Compound No. 165 (peptide)
peptide: PXGLDT
modifications: X^y (4-aminomethyl-Phe)
notes: macrocycle of formula (I)
B3: Compound No. 166 (peptide)
peptide: PXVLDT
modifications: X^y Tyr(OAllyl); X^z dVal
notes: macrocycle of formula (I)
B4: Compound No. 167 (peptide)
peptide: PXSLDT
modifications: X^y Tyr(OAllyl); X^z dSer
notes: macrocycle of formula (I)
B5: Compound No. 217 (peptide)
peptide: P[dR][β3hK]LDT
modifications: bridge N-C; not fully specified (bridges); printed as Pro X1 X2 Leu Asp Thr
notes: macrocycle of formula (I)
B6: Compound No. 220 (peptide)
peptide: PF[d(β3hK)]LDI
modifications: bridge N-C; not fully specified (bridges); printed as Pro Phe X Leu Asp Ile
notes: macrocycle of formula (I)
B7: Compound No. 231 (peptide)
peptide: PR[β3hK]LDT
modifications: bridge N-C; not fully specified (bridges); also: macrocycle closed by non-peptide linker -NH-CH(CH3)-CH(C(O)NH-tBu)- between Pro1 N and C-terminal C
notes: macrocycle of formula (I)
B8: Compound No. 40 (peptide)
peptide: PFLD[Thr(OMe)]
modifications: bridge N-C; not fully specified (bridges); printed as Pro Phe Leu Asp X
notes: macrocycle of formula (I); R1 H, R2 H, R3 CH3, R4 H, R5 C(O)-NH-tert-Butyl
B9: Compound No. 157 (peptide)
peptide: PYXLDT
modifications: X^z dMeArg
notes: macrocycle of formula (I)
B10: Compound No. 517 (peptide)
peptide: P[X3]LDT
modifications: bridge (positions not given here); not fully specified (residue 2, bridges); also: homodimer: diphenic acid diamide on piperazine N of X2 joins two copies
notes: also called ET3764; ET03764
B11: Compound No. 32 (peptide)
peptide: [Hyp]FLDT
modifications: linker N-C via formula (I) linker
B12: Compound No. 215 (peptide)
peptide: P[Phe(4-CH2NH2)][β3hK]LDI
modifications: bridge N-C; not fully specified (bridges); printed as Pro X1 X2 Leu Asp Ile
notes: macrocycle of formula (I)
B13: Compound No. 253 (peptide)
peptide: cyclo(P[dPhe(4-CH2NH2)][β3hK]LDI)
modifications: also: macrocycle closed by non-peptide linker -NH-CH(CH3)-CH(C(O)NH-tBu)- between Pro1 N and C-terminal C
notes: macrocycle of formula (I)
B14: Compound No. 254 (peptide)
peptide: cyclo(P[Phe(4-CH2NH2)][β3hK]LDV)
modifications: also: macrocycle closed by non-peptide linker -NH-CH(CH3)-CH(C(O)NH-tBu)- between Pro1 N and C-terminal C
notes: macrocycle of formula (I)
B15: Compound No. 155 (peptide)
peptide: PY[dNle]LDT
modifications: bridge N-C; not fully specified (bridges); also: macrocycle closed by non-peptide linker -NH-CH(CH3)-CH(C(O)NH-tBu)- between Pro N and C-terminal C
notes: macrocycle of formula (I)

Key:
[1] = molecular target: T1, recombinant integrin α4β1 (R&D Systems, 5397-A3-050 [sic]) (UniProt P13612 34-970; P05556 21-728); assay: α4β1-VCAM-1 competition ELISA
T1 construct: coated on the ELISA plate at 0.5 µg/ml; the printed catalogue number is the same as for α4β7; also called a4b1; α4β1 integrin
Method: (§1) The plate was incubated at 4° C. overnight. […] The plate was then incubated for 1 hour at room temperature. The plate was washed three times with wash buffer (50 mM Tris, 100 mM NaCl, 1 mM MnCl₂, 0.05% Tween). To each well, 50 μl of compound diluted in assay buffer was added by transfer from a compound serial dilution plate. […] The plate was incubated at room temperature with shaking (300 rpm) for 2 hours to reach binding equilibrium. Then the plate was washed three times in wash buffer and 100 μl anti-human IgG Fc specific-HRP (Abcam, Ab97225) diluted at 1:2000 in assay buffer was added to each well. The plate was incubated at room temperature for 1 hour under agitation.

[2] = molecular target: T1, recombinant integrin α4β1 (R&D Systems, …); assay: ratio of ELISA IC50s, α4β1 over α4β7
Method: as §1
(§2) The plate was incubated at 4° C. overnight. […] The plate was then incubated for 1 hour at room temperature. The plate was washed three times with wash buffer (50 mM Tris, 100 mM NaCl, 1 mM MnCl₂, 0.05% Tween). To each well, 50 μl of compound diluted in assay buffer was added by transfer from a compound serial dilution plate. […] The plate was incubated at room temperature with shaking (300 rpm) for 2 hours to reach binding equilibrium.

[3] = molecular target: T2, recombinant integrin α4β7 (R&D Systems, 5397-A3-050) (UniProt P13612 34-970; P26010 20-723); assay: α4β7-MAdCAM-1 competition ELISA
T2 construct: coated on the ELISA plate at 1 µg/ml; also called a4b7; α4β7 integrin
Method: as §1
T2 sequence (P13612 34-970, chain 1 of 2): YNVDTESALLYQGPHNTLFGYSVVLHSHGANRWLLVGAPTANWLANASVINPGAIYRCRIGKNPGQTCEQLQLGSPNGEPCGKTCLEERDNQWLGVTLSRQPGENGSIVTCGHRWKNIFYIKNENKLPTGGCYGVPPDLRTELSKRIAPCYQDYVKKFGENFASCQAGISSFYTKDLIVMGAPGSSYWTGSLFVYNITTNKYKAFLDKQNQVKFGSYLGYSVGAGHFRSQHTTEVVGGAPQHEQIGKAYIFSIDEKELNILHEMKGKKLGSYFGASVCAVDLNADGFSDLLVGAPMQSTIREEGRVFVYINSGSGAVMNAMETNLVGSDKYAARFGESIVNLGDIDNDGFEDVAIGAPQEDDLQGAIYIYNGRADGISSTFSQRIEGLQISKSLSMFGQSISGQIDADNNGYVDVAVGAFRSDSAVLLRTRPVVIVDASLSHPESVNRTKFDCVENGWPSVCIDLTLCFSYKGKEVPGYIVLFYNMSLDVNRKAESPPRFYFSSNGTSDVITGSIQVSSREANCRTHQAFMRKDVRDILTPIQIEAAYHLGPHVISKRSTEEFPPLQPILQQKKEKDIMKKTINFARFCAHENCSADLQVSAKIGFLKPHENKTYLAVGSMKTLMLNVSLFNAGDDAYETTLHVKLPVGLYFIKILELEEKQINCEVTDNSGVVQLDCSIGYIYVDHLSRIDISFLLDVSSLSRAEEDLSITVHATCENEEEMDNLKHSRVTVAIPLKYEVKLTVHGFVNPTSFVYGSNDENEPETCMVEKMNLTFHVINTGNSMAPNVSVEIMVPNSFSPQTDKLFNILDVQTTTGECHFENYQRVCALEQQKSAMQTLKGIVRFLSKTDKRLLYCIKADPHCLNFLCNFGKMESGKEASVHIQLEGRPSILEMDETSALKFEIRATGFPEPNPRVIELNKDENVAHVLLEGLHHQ
T2 sequence (P26010 20-723, chain 2 of 2): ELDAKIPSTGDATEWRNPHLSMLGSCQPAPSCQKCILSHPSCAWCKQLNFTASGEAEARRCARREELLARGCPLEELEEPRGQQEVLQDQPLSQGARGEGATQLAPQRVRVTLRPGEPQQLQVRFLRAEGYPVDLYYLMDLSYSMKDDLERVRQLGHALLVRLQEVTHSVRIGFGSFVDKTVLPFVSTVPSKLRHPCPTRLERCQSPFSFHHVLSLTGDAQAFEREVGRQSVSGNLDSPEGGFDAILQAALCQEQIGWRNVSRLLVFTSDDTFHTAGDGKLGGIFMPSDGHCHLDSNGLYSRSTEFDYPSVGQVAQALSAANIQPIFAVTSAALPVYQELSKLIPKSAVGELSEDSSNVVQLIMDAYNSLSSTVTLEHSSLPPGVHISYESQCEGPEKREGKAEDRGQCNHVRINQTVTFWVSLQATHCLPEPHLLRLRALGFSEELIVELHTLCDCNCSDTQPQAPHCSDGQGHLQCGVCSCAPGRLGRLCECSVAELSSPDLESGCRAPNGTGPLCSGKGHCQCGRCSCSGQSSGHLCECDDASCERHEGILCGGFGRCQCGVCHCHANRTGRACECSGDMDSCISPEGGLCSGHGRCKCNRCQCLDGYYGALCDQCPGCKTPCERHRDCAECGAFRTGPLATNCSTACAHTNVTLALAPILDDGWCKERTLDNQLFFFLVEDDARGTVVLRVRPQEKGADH

[4] = molecular target: T3, recombinant integrin α4β1 (R&D Systems, 5397-A3-050) (UniProt P13612 34-970; P05556 21-728); assay: competition ELISA, VCAM-Fc on coated α4β1
T3 construct: bought; coated on the ELISA plate; also called a4b1; α4β1 integrin
Method: as §1

[5] = molecular target: T3, recombinant integrin α4β1 (R&D Systems, …); assay: IC50 on α4β1 / IC50 on α4β7
Method: as §1, §2

[6] = molecular target: T4, recombinant integrin α4β7 (R&D Systems, 5397-A3-050) (UniProt P13612 34-970; P26010 20-723); assay: competition ELISA, MAdCAM-Fc on coated α4β7
T4 construct: bought; coated on the ELISA plate; also called a4b7; α4β7 integrin
Method: as §1
T4 sequence (P13612 34-970, chain 1 of 2): as the sequence (P13612 34-970, chain 1 of 2) above
T4 sequence (P26010 20-723, chain 2 of 2): as the sequence (P26010 20-723, chain 2 of 2) above

[7] = molecular target: T5, integrin α4β1 on human cells (human, UniProt P13612 34-1032; P05556 21-798); assay: VCAM-1 competition, FACS on α4β7-negative Th memory cells, human whole blood
T5 construct: whole, on cells; also called a4b1

[8] = molecular target: T6, integrin α4β7 on human cells (human, UniProt P13612 34-1032; P26010 20-798); assay: competition with a saturating amount of MAdCAM, flow cytometry on α4β7+ Th memory cells in human whole blood
T6 construct: whole, on cells; also called a4b7; alpha-4-beta-7 integrin
Method: Cells were washed with 1 mL stain buffer-FBS (BD Biosciences) and resuspended in 100 μl stain Buffer-FBS (BD Biosciences) containing 4 mM MnCl₂. […] Cells were then washed with 1 mL stain buffer-FBS and resuspended in 100 μl stain buffer-FBS. The cells were incubated in the dark for 30 minutes at room temperature with 1 ul Streptavidin APC (Biolegend 0.2 mg/ml) and a panel of antibodies for the detection of memory T helper a4b7-positive cells subset. And amount of 5.0 ul each of the following antibodies were used; CD45 FITC (BioLegend 200 ug/ml), CD29 APC Cy7 (BioLegend 100 ug/ml), Integrin beta7 PE, (BioLegend concentration 50 μg/mL), CD49d V421 (BioLegend 50 μg/mL), CD3 V510 (BioLegend 30 μg/mL), CD4 PECy7 (BioLegend 100 μg/mL), CD45RO PerCP, BioLegend 200 μg/mL). The cells were then washed with stain-buffer-FBS and resuspended in 150 microL stain buffer-FBS for acquisition on the flow cytometer (BD FACSCanto™ flow cytometer and BDFACSDiva™ software). FACS data was acquire by electronic gating on the basis of forward versus side scatter, The cytometer was set to collect 20,000 events in each tube. Cell population were determined using the following markers, CD45+, CD3+, CD4+, CD45RO+, CD49d+, integrin b7, biotinylated ligands.

[9] = molecular target: T6, integrin α4β7 on human cells; assay: cell-based or functional assay
[10] = molecular target: integrin α4β7 on RPMI8866 human cells (human, UniProt P13612 34-1032; P26010 20-798); assay: cell-based or functional assay
Chain of integrin α4β7 on RPMI8866 human cells (P13612 34-1032, chain 1 of 2): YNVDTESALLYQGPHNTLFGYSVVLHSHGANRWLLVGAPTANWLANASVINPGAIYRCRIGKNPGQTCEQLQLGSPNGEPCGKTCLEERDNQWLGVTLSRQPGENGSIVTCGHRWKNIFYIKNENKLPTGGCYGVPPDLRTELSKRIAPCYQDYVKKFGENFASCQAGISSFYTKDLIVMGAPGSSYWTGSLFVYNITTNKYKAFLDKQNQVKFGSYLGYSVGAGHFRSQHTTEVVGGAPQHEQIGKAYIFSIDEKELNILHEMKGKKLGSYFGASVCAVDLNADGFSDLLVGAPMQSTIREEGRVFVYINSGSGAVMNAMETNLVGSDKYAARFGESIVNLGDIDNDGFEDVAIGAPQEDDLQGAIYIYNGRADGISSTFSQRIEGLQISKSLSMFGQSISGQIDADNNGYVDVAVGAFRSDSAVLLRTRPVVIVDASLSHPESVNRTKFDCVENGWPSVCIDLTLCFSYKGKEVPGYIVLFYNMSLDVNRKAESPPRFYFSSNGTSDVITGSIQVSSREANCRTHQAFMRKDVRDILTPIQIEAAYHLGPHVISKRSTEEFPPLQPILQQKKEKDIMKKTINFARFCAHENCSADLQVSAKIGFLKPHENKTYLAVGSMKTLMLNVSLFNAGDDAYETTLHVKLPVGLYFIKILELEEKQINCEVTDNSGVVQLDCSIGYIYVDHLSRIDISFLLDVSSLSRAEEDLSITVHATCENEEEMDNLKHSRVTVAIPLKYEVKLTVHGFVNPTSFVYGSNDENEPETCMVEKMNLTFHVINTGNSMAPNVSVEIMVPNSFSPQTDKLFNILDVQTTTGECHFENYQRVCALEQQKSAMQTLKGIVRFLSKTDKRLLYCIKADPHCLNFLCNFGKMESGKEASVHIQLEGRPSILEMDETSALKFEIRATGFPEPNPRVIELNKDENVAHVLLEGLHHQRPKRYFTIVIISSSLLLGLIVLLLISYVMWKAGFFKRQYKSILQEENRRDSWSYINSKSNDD
Chain of integrin α4β7 on RPMI8866 human cells (P26010 20-798, chain 2 of 2): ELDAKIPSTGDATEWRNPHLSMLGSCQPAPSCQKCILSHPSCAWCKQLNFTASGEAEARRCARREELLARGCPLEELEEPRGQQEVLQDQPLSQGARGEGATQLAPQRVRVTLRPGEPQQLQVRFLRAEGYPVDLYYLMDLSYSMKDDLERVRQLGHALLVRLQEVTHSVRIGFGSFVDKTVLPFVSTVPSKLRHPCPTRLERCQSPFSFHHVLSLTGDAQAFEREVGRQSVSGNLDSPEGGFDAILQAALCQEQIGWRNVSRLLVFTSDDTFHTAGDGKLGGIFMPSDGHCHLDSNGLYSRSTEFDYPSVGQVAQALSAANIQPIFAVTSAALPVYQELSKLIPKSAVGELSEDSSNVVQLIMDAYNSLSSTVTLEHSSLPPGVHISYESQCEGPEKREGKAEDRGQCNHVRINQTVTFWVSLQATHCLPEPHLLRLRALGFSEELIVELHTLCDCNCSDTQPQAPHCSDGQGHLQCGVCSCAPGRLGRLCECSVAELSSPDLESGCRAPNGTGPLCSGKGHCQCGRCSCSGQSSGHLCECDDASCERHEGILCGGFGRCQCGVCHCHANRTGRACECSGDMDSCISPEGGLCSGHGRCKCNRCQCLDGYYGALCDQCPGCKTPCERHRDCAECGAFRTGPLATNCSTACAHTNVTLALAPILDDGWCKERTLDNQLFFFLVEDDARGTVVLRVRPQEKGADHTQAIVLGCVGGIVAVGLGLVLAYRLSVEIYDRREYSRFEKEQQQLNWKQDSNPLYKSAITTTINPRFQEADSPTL

T1 sequence (P13612 34-970, chain 1 of 2): as the sequence (P13612 34-970, chain 1 of 2) above
T1 sequence (P05556 21-728, chain 2 of 2): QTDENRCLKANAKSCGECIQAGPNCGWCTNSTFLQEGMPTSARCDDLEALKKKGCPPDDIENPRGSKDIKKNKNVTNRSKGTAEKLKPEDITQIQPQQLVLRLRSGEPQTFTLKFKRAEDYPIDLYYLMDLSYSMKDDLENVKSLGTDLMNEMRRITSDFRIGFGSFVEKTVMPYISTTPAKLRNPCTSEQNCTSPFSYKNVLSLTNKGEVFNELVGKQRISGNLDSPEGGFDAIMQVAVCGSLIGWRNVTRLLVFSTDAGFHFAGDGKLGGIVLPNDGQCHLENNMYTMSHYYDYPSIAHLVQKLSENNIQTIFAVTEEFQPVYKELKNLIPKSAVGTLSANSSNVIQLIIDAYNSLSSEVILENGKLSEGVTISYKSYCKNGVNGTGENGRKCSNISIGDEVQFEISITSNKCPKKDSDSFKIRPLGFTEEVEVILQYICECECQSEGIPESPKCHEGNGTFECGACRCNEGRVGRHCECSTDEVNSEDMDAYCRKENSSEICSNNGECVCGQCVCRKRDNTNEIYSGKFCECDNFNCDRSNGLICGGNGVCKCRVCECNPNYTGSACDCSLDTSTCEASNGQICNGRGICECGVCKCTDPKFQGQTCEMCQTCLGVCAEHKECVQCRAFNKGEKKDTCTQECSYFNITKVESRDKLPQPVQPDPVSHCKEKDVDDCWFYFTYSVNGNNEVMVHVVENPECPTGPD
T3 sequence (P13612 34-970, chain 1 of 2): as the sequence (P13612 34-970, chain 1 of 2) above
T3 sequence (P05556 21-728, chain 2 of 2): as the sequence (P05556 21-728, chain 2 of 2) above
T6 sequence (P13612 34-1032, chain 1 of 2): as the sequence (P13612 34-1032, chain 1 of 2) above
T6 sequence (P26010 20-798, chain 2 of 2): as the sequence (P26010 20-798, chain 2 of 2) above

Row | Binder | IC50 [1] [nM] | IC50 [3] [nM] | also measured
1 | B1 | 447 | 54 | ELISA Assay Ratio b1/b7 [2]: 8.2
2 | B2 | 2920 | – | –
3 | B3 | 1380 | – | –
4 | B4 | 2000 | – | –
5 | B5 | 1090 | – | –
6 | B6 | 1740 | 96 | ELISA Assay Ratio b1/b7 [2]: 18.2
7 | B7 | 993 | – | –
8 | B8 | – | – | IC50 [4]: 119 nM; ELISA Assay Ratio b1/b7 [5]: 1.9; IC50 [6]: 63 nM
9 | B9 | – | 67 | –
10 | B10 | – | – | IC50 [7]: 600 nM; EC50 [8]: 38 nM; IC50 in the RPM18866 cell adhesion assay [9]: 9.9 nM
11 | B11 | – | – | RPMI8866 Adhesion a4b7/MAdCAM IC50 [10]: 11200 nM
12 | B12 | 413 | 33 | –
13 | B13 | 1090 | 69 | –
14 | B14 | 1800 | 55 | ELISA Assay Ratio b1/b7 [2]: 33
15 | B15 | – | 54 | –
